These results are taken from article PMC11211486, “Structural basis for recruitment of peptidoglycan endopeptidase MepS by lipoprotein NlpI” (Nature Communications, 2024).

“And” between values parts separate entries of the source, which are not always exact repeats. Equal entries are not always repeated. Where no end group is shown, it is not given here.

The labels stand for the following.
B3: NlpI (residues 20-294), soluble mature lipoprotein NlpI without the lipoprotein signal peptide (natural protein, E. coli, UniProt P0AFB1 20-294, looked up)
chain: SNTSWRKSEVLAVPLQPTLQQEVILARMEQILASRALTDDERAQLLYERGVLYDSLGLRALARNDFSQALAIRPDMPEVFNYLGIYLTQAGNFDAAYEAFDSVLELDPTYNYAHLNRGIALYYGGRDKLAQDDLLAFYQDDPNDPFRSLWLYLAEQKLDEKQAKEVLKQHFEKSDKEQWGWNIVEFYLGNISEQTLMERLKADATDNTSLAEHLSETNFYLGKYYLSLGDLDSATALFKLAVANNVHNFVEHRYALLELSLLGQDQDDLAESDQQ
notes: the lipidation residue C19 is not in the construct; pET28a, N-terminal His-tag followed by a TEV site; also called NlpI dimer; adaptor NlpI; source: E. coli BL21 (DE3), purified (Ni-NTA, SEC, MonoQ)
B7: soluble mature form of MepS (mMepS, residues 1-162) (enzyme, E. coli, UniProt P0AFV4 27-188, looked up)
chain: MSANNTAKNMHPETRAVGSETSSLQASQDEFENLVRNVDVKSRIMDQYADWKGVRYRLGGSTKKGIDCSGFVQRTFREQFGLELPRSTYEQQEMGKSVSRSNLRTGDLVLFRAGSTGRHVGIYIGNNQFVHASTSSGVIISSMNEPYWKKRYNEARRVLSRS
modifications: 15N-labelled in the NMR titrations
notes: Cloned into either pET21a (C-terminal His-tag) or pET28a (N-terminal His-tag and TEV site); also called wild-type mMepS; mature full-length MepS; source: E. coli BL21 (DE3), purified (Ni-NTA, SEC)

Data set [1] addresses T1, NlpI (residues 20-294, without the lipoprotein signal peptide) (E. coli, UniProt P0AFB1 20-294).
T1 construct: the lipidation site C19 is not in the construct; pET28a with an N-terminal His-tag and a TEV cleavage site; also called NlpI-WT; NlpI dimer; source: E. coli BL21 (DE3), purified (Ni-NTA, SEC, MonoQ)
Nature of the data set: ITC; NlpI (or NlpI-ΔN) in the syringe, 300 or 600 µM, injected into 30 µM MepS protein in the cell; 20 °C; 20 mM HEPES pH 7.5, 300 mM NaCl, 2 mM β-mercaptoethanol; one set of sites model; three experiments and their average. The conditions noted are these: both partners purified. (Isothermal titration calorimetry measures the heat released or taken up as one component is titrated into another.)

For data set [2], the target named is B3. Put plainly: ITC; NlpI (300 or 600 µM) injected into 30 µM MepS protein in the cell; 20 °C; 20 mM HEPES pH 7.5, 300 mM NaCl, 2 mM β-mercaptoethanol; one set of sites model. As to conditions: both partners purified.
Data set [3] concerns the molecule itself. Nature of the data set: crystal structure; NlpI-mMepS complex, 2.8 Å, space group C2, PDB 8XUP.
Data set [4] deals with B7. Put plainly: ITC; NlpI (300 or 600 µM) injected into 30 µM MepS protein in the cell; 20 °C; 20 mM HEPES pH 7.5, 300 mM NaCl, 2 mM β-mercaptoethanol; one set of sites model. As to conditions: both partners purified.
For data set [5], the target named is T2, mMepS-L24R (E. coli, UniProt P0AFV4 27-188, C1 replaced with a Met residue | L24R).
T2 construct: Site-directed mutant of mMepS; also called L24R variant; source: E. coli BL21 (DE3), purified (Ni-NTA, SEC)
T2 sequence (looked up): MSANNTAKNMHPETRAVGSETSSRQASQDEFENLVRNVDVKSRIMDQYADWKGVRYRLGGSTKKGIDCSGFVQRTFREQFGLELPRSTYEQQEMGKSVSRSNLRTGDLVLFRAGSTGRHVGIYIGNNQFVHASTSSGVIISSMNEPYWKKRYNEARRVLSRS
Described as above. The conditions noted are these: both partners purified.

For data set [6], the target named is T3, mMepS-Q28A (E. coli, UniProt P0AFV4 27-188, C1 replaced with a Met residue | Q28A).
T3 construct: Site-directed mutant of mMepS; source: E. coli BL21 (DE3), purified (Ni-NTA, SEC)
T3 sequence (looked up): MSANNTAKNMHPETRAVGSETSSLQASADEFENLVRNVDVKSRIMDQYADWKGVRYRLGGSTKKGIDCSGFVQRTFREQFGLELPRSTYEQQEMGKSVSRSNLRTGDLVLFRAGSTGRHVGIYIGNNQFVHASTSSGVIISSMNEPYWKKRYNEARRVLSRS
The data set is described as above. As to conditions: both partners purified.

Data set [7] concerns the target B7. Put plainly: NMR titration; 1H-15N TROSY-HSQC of 15N-labelled MepS protein (50 µM in Fig. 1) with unlabelled NlpI dimer (25 µM), NlpI-ΔN or Prc^SK added; 298 K; intensity ratios I/I0. The conditions noted are these: both partners purified.

B1: MepS-N39 (residues 1-39) (domain or fragment, E. coli, UniProt P0AFV4 27-65, looked up)
chain: MSANNTAKNMHPETRAVGSETSSLQASQDEFENLVRNVD
notes: MepS, E. coli, mature residues 1-39, C1 replaced by Met; numbers count on: the mature protein; His-tag and TEV site; nothing is said for the ITC samples; source: E. coli BL21 (DE3), purified (Ni-NTA, SEC)
With B1, the Kd – broadly, a measure of binding affinity in units of concentration – in data set [1] was 2650 nM and 2550 nM and 2840 nM.

B2: MepS-N39 (residues 1-39) (domain or fragment, E. coli, UniProt P0AFV4 27-65, looked up)
chain: MSANNTAKNMHPETRAVGSETSSLQASQDEFENLVRNVD
modifications: also: 15N-labelled
notes: MepS, E. coli, N-terminal 39 residues of the mature protein, C1 replaced with Met. numbers count on: the mature protein; this is told for the NMR samples, not for ITC; source: E. coli BL21 (DE3), purified (Ni-NTA, SEC); not shown: His6 with TEV site, N-terminal, kept
In the case of B2, the Kd in data set [2] is 2680 nM. As for B3, the stoichiometry N (usually the number of molecules, sites or subunits per partner or assembly) in data set [3] was 2; in data set [4] it was 1. The “fold increase in KD against mMepS” value in data set [5] is roughly 28 fold. Moreover, the “fold decrease in binding affinity against mMepS” value in data set [6] turned out to be 7.7 fold. Moreover, the “NMR signal intensity ratio with NlpI” value in data set [7] was less than 10%.

B4: MepS-N53 (residues 1-53) (domain or fragment, E. coli, UniProt P0AFV4 27-79, looked up)
chain: MSANNTAKNMHPETRAVGSETSSLQASQDEFENLVRNVDVKSRIMDQYADWKG
notes: MepS, E. coli, mature residues 1-53, C1 replaced by Met; numbers count on: the mature protein; His-tag and TEV site; nothing is said for the ITC samples; source: E. coli BL21 (DE3), purified (Ni-NTA, SEC)
B4: the Kd in data set [1] is 1190 nM and 1560 nM and 1590 nM.

B5: MepS-N53 (residues 1-53) (domain or fragment, E. coli, UniProt P0AFV4 27-79, looked up)
chain: MSANNTAKNMHPETRAVGSETSSLQASQDEFENLVRNVDVKSRIMDQYADWKG
modifications: also: 15N-labelled
notes: MepS, E. coli, N-terminal 53 residues of the mature protein, C1 replaced with Met. numbers count on: the mature protein; this is told for the NMR samples, not for ITC; source: E. coli BL21 (DE3), purified (Ni-NTA, SEC); not shown: His6 with TEV site, N-terminal, kept
As to B5, the Kd in data set [2] is 1450 nM.

B6: soluble mature form of MepS (mMepS, residues 1-162) (enzyme, E. coli, UniProt P0AFV4 27-188, looked up)
chain: MSANNTAKNMHPETRAVGSETSSLQASQDEFENLVRNVDVKSRIMDQYADWKGVRYRLGGSTKKGIDCSGFVQRTFREQFGLELPRSTYEQQEMGKSVSRSNLRTGDLVLFRAGSTGRHVGIYIGNNQFVHASTSSGVIISSMNEPYWKKRYNEARRVLSRS
notes: numbers count on: the mature protein; Cloned into either pET21a (C-terminal His-tag) or pET28a (N-terminal His-tag and TEV site); also called mMepS-1; mMepS-2; source: E. coli BL21 (DE3), purified (Ni-NTA, SEC)
With B6, the Kd in data set [1] is 250 nM and 220 nM. For B7, the affinity in data set [2], expressed as Kd, was 240 nM.

B8: mMepS-Q28A (enzyme, E. coli, UniProt P0AFV4 27-188, looked up)
chain: MSANNTAKNMHPETRAVGSETSSLQASADEFENLVRNVDVKSRIMDQYADWKGVRYRLGGSTKKGIDCSGFVQRTFREQFGLELPRSTYEQQEMGKSVSRSNLRTGDLVLFRAGSTGRHVGIYIGNNQFVHASTSSGVIISSMNEPYWKKRYNEARRVLSRS
notes: numbers count on: the mature protein; Site-directed mutant of mMepS; source: E. coli BL21 (DE3), purified (Ni-NTA, SEC)
On to B8, for which the Kd in data set [1] is 1910 nM and 1770 nM and 1880 nM and 1850 nM.

B9: mMepS-L24R (enzyme, E. coli, UniProt P0AFV4 27-188, looked up)
chain: MSANNTAKNMHPETRAVGSETSSRQASQDEFENLVRNVDVKSRIMDQYADWKGVRYRLGGSTKKGIDCSGFVQRTFREQFGLELPRSTYEQQEMGKSVSRSNLRTGDLVLFRAGSTGRHVGIYIGNNQFVHASTSSGVIISSMNEPYWKKRYNEARRVLSRS
notes: as for B8
For B9, the Kd in data set [1] is 6210 nM and 6800 nM and 6940 nM and 6650 nM.

B10: mMepS-D39A (enzyme, E. coli, UniProt P0AFV4 27-188, looked up)
chain: MSANNTAKNMHPETRAVGSETSSLQASQDEFENLVRNVAVKSRIMDQYADWKGVRYRLGGSTKKGIDCSGFVQRTFREQFGLELPRSTYEQQEMGKSVSRSNLRTGDLVLFRAGSTGRHVGIYIGNNQFVHASTSSGVIISSMNEPYWKKRYNEARRVLSRS
notes: as for B8
On to B10, for which, in data set [1], the Kd is 280 nM and 390 nM and 500 nM.

B11: mMepS-D39A (enzyme, E. coli, UniProt P0AFV4 27-188, looked up)
chain: MSANNTAKNMHPETRAVGSETSSLQASQDEFENLVRNVAVKSRIMDQYADWKGVRYRLGGSTKKGIDCSGFVQRTFREQFGLELPRSTYEQQEMGKSVSRSNLRTGDLVLFRAGSTGRHVGIYIGNNQFVHASTSSGVIISSMNEPYWKKRYNEARRVLSRS
notes: Site-directed mutant of mMepS; source: E. coli BL21 (DE3), purified (Ni-NTA, SEC)
In data set [2], B11 displayed a Kd of 390 nM.
